Here are results for two molecules from publication PMC9987972, “Interaction of the periplasmic chaperone SurA with the inner membrane protein secretion (SEC) machinery” (Biochemical Journal, 2023).

As a reminder, the stoichiometry N is a count of units in the complex or per binding partner.

For data set [1], the target named is T1, SurA (E. coli), P0ABZ6.
T1 chain: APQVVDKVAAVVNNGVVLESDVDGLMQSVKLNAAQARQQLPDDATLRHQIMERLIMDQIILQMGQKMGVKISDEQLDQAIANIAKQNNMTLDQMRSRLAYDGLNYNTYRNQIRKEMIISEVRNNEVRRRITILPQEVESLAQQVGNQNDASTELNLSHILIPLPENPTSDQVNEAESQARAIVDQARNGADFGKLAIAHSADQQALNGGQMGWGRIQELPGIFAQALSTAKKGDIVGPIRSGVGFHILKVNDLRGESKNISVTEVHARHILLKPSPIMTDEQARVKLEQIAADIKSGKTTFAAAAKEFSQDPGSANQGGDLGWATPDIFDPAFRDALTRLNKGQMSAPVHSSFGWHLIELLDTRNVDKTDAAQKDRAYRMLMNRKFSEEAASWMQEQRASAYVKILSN
Briefly: native gel or EMSA; NativePAGE Bis-Tris 3–12%; HTL 3.8 µM with SurA or SurA:OmpA at 1:3 molar ratio, or each alone, in TS130G (20 mM Tris-HCl pH ≈ 8, 130 mM NaCl, 10% glycerol) + 0.01% DDM-CL, 30 min at 30°C; bands excised and analysed by SDS–PAGE with silver staining. As to conditions: remark: other sources report otherwise. Background: In EMSA bound probe runs differently from free probe, usually more slowly.

Data set [2] concerns the molecule itself. The data set is described as above.

B1: SurA, P0ABZ6 21-428 (natural protein)
chain: T1 chain
B1: the stoichiometry N in data set [1] came to 2.

B2: SurA–OmpA complex (complex)
chain 1: T1 chain
chain 2: APKDNTWYTGAKLGWSQYHDTGFINNNGPTHENQLGAGAFGGYQVNPYVGFEMGYDWLGRMPYKGSVENGAYKAQGVQLTAKLGYPITDDLDIYTRLGGMVWRADTKSNVYGKNHDTGVSPVFAGGVEYAITPEIATRLEYQWTNNIGDAHTIGTRPDNGMLSLGVSYRFGQGEAAPVVAPAPAPAPEVQTKHFTLKSDVLFNFNKATLKPEGQAALDQLYSQLSNLDPKDGSVVVLGYTDRIGSDAYNQGLSERRAQSVVDYLISKGIPADKISARGMGESNPVTGNTCDNVKQRAALIDCLAPDRRVEIEVKGIKDVVTQPQA
notes: SurA, periplasmic chaperone, E. coli; as the chain of m2; OmpA, outer membrane protein, from pET11a-ompA; also called substrate-engaged SurA; occupied chaperone; source: E. coli BL21(DE3), made separately; OmpA pellet in 6 M urea mixed with SurA supernatant, urea dialysed away, purified (HisTrap, HiTrap Q; S200 SEC for the size exclusion experiments)
For the molecule B2, the “stoichiometry N” value in data set [2] came to 2.
